Data set [1] concerns HeLa Kyoto. As to the kind of experiment: solubility change mitosis vs G1/S (difference of NP-40 vs SDS log2 ratios) (log2 ratio difference); higher = more soluble in mitosis.
The subject of data set [2] is HeLa Kyoto. The experiment in a line: melting temperature (median over replicates), in situ; higher = more thermally stable.
Data set [3] has as its system HeLa Kyoto. The experiment in a line: thermal stability score vs G1/S (z-score of summed log2 fold changes over temperatures); higher = more thermally stable than in G1/S.
Data set [4] deals with HeLa Kyoto. As to the kind of experiment: solubility in G1/S (NP-40 vs SDS abundance) (log2 ratio); higher = more soluble. The conditions noted are these: cell cycle stage: G1/S.
The mark [5] stands for this setting: cell cycle stage: early G1 (4.5 h after nocodazole release).
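Throughout, for melting temperature (median over replicates), in situ: HeLa Kyoto cells synchronized by double thymidine or nocodazole block, proteins quantified by TMT10plex mass spectrometry, three independent biological replicates.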
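Throughout, for solubility change mitosis vs G1/S (difference of NP-40 vs SDS log2 ratios): synchronized HeLa Kyoto cells (double thymidine block for G1/S, nocodazole release for mitosis), protein amounts in NP-40 versus SDS lysates quantified by mass spectrometry, three biological replicates.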
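Throughout, for solubility in G1/S (NP-40 vs SDS abundance): HeLa Kyoto cells arrested at G1/S by double thymidine block, proteins quantified by TMT10plex mass spectrometry in mild NP-40 versus SDS extracts, three biological replicates.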
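Throughout, for thermal stability score vs G1/S (z-score of summed log2 fold changes over temperatures): synchronized HeLa Kyoto cells, proteins quantified by TMT10plex mass spectrometry, three biological replicates, mitosis taken 0.5 h after nocodazole release, G1/S directly after double thymidine block.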

“MAPWTLWRCCQRVVGWVPVLFITFVVVWSYYAYVVELCVFTIFGNEENGKTVVYLVAFHLFFVMFVWSYWMTIFTSPASPSKEFYLSNSEKERYEKEFSQERQQEILRRAARALPIYTTSASKTIRYCEKCQLIKPDRAHHCSACDSCILKMDHHCPWVNNCVGFSNYKFFLLFLLYSLLYCLFVAATVLEYFIKFWTNELTDTRAKFHVLFLFFVSAMFFISVLSLFSYHCWLVGKNRTTIESFRAPTFSYGPDGNGFSLGCSKNWRQVFGDEKKYWLLPIFSSLGDGCSFPTRLVGMDPEQASVTNQNEYARSSGSNQPFPIKPLSESKNRLLDSESQWLENGAEEGIVKSGTNNHVTVAIEN [ZDHHC20]”: the “solubility change mitosis (log2)” value in the data set on HeLa Kyoto [1] was -0.0867. Moreover, the values for the melting temperature with HeLa Kyoto [2] (cell cycle stage: G1/S) and in the data set on HeLa Kyoto [2] (cell cycle stage: mitosis) were 55.1 °C and 58.2 °C, respectively. Moreover, the values for the thermal stability score in the data set with HeLa Kyoto [3] (setting [5]) and in the data set with HeLa Kyoto [3] (cell cycle stage: mitosis) were -0.885 and -1.86, respectively. For the same substance, the “solubility in G1/S (log2)” value with HeLa Kyoto [4] was -0.00639.
Regarding “MSRSYNDELQFLEKINKNCWRIKKGFVPNMQVEGVFYVNDALEKLMFEELRNACRGGGVGGFLPAMKQIGNVAALPGIVHRSIGLPDVHSGYGFAIGNMAAFDMNDPEAVVSPGGVGFDINCGVRLLRTNLDESDVQPVKEQLAQAMFDHIPVGVGSKGVIPMNAKDLEEALEMGVDWSLREGYAWAEDKEHCEEYGRMLQADPNKVSARAKKRGLPQLGTLGAGNHYAEIQVVDEIFNEYAAKKMGIDHKGQVCVMIHSGSRGLGHQVATDALVAMEKAMKRDKIIVNDRQLACARIASPEGQDYLKGMAAAGNYAWVNRSSMTFLTRQAFAKVFNTTPDDLDLHVIYDVSHNIAKVEQHVVDGKERTLLVHRKGSTRAFPPHHPLIAVDYQLTGQPVLIGGTMGTCSYVLTGTEQGMTETFGTTCHGAGRALSRAKSRRNLDFQDVLDKLADMGIAIRVASPKLVMEEAPESYKNVTDVVNTCHDAGISKKAIKLRPIAVIKG [RTCB]”, the “solubility change mitosis (log2)” value in the data set with HeLa Kyoto [1] was 0.0881. For the same substance, the melting temperature is 53 °C in the data set on HeLa Kyoto [2] (cell cycle stage: G1/S) and 52.4 °C with HeLa Kyoto [2] (cell cycle stage: mitosis). The results for the thermal stability score with HeLa Kyoto [3] (setting [5]) and with HeLa Kyoto [3] (cell cycle stage: mitosis) were -2.97 and -3.42, respectively. Besides, the “solubility in G1/S (log2)” value with HeLa Kyoto [4] is 0.171.
On to “MEAERGPERRPAERSSPGQTPEEGAQALAEFAALHGPALRASGVPERYWGRLLHKLEHEVFDAGEVFGIMQVEEVEEEEDEAAREVRKQQPNPGNELCYKVIVTRESGLQAAHPNSIFLIDHAWTCRVEHARQQLQQVPGLLHRMANLMGIEFHGELPSTEAVALVLEEMWKFNQTYQLAHGTAEEKMPVWYIMDEFGSRIQHADVPSFATAPFFYMPQQVAYTLLWPLRDLDTGEEVTRDFAYGETDPLIRKCMLLPWAPTDMLDLSSCTPEPPAEHYQAILEENKEKLPLDINPVVHPHGHIFKVYTDVQQVASSLTHPRFTLTQSEADADILFNFSHFKDYRKLSQERPGVLLNQFPCENLLTVKDCLASIARRAGGPEGPPWLPRTFNLRTELPQFVSYFQQRERWGEDNHWICKPWNLARSLDTHVTKSLHSIIRHRESTPKVVSKYIESPVLFLREDVGKVKFDIRYIVLLRSVRPLRLFVYDVFWLRFSNRAFALNDLDDYEKHFTVMNYDPDVVLKQVHCEEFIPEFEKQYPEFPWTDVQAEIFRAFTELFQVACAKPPPLGLCDYPSSRAMYAVDLMLKWDNGPDGRRVMQPQILEVNFNPDCERACRYHPTFFNDVFSTLFLDQPGGCHVTCLV [TTLL12]”, for which the “solubility change mitosis (log2)” value in the data set on HeLa Kyoto [1] was -0.125. For the same substance, the figures for the melting temperature in the data set on HeLa Kyoto [2] (cell cycle stage: G1/S) and in the data set with HeLa Kyoto [2] (cell cycle stage: mitosis) were 47.6 °C and 48.4 °C, respectively. The figures for the thermal stability score with HeLa Kyoto [3] (setting [5]) and with HeLa Kyoto [3] (cell cycle stage: mitosis) were 2 and 3.92, respectively. For the same substance, in the data set on HeLa Kyoto [4], the “solubility in G1/S (log2)” value turned out to be 0.0605.
“MADHVQSLAQLENLCKQLYETTDTTTRLQAEKALVEFTNSPDCLSKCQLLLERGSSSYSQLLAATCLTKLVSRTNNPLPLEQRIDIRNYVLNYLATRPKLATFVTQALIQLYARITKLGWFDCQKDDYVFRNAITDVTRFLQDSVEYCIIGVTILSQLTNEINQADTTHPLTKHRKIASSFRDSSLFDIFTLSCNLLKQASGKNLNLNDESQHGLLMQLLKLTHNCLNFDFIGTSTDESSDDLCTVQIPTSWRSAFLDSSTLQLFFDLYHSIPPSFSPLVLSCLVQIASVRRSLFNNAERAKFLSHLVDGVKRILENPQSLSDPNNYHEFCRLLARLKSNYQLGELVKVENYPEVIRLIANFTVTSLQHWEFAPNSVHYLLSLWQRLAASVPYVKATEPHMLETYTPEVTKAYITSRLESVHIILRDGLEDPLEDTGLVQQQLDQLSTIGRCEYEKTCALLVQLFDQSAQSYQELLQSASASPMDIAVQEGRLTWLVYIIGAVIGGRVSFASTDEQDAMDGELVCRVLQLMNLTDSRLAQAGNEKLELAMLSFFEQFRKIYIGDQVQKSSKLYRRLSEVLGLNDETMVLSVFIGKIITNLKYWGRCEPITSKTLQLLNDLSIGYSSVRKLVKLSAVQFMLNNHTSEHFSFLGINNQSNLTDMRCRTTFYTALGRLLMVDLGEDEDQYEQFMLPLTAAFEAVAQMFSTNSFNEQEAKRTLVGLVRDLRGIAFAFNAKTSFMMLFEWIYPSYMPILQRAIELWYHDPACTTPVLKLMAELVHNRSQRLQFDVSSPNGILLFRETSKMITMYGNRILTLGEVPKDQVYALKLKGISICFSMLKAALSGSYVNFGVFRLYGDDALDNALQTFIKLLLSIPHSDLLDYPKLSQSYYSLLEVLTQDHMNFIASLEPHVIMYILSSISEGLTALDTMVCTGCCSCLDHIVTYLFKQLSRSTKKRTTPLNQESDRFLHIMQQHPEMIQQMLSTVLNIIIFEDCRNQWSMSRPLLGLILLNEKYFSDLRNSIVNSQPPEKQQAMHLCFENLMEGIERNLLTKNRDRFTQNLSAFRREVNDSMKNSTYGVNSNDMMS [XPO7]”: the “solubility change mitosis (log2)” value in the data set with HeLa Kyoto [1] was -0.207. Further, the melting temperature in the data set with HeLa Kyoto [2] (cell cycle stage: G1/S) and in the data set with HeLa Kyoto [2] (cell cycle stage: mitosis) was 52.2 °C each time. The figures for the thermal stability score in the data set on HeLa Kyoto [3] (setting [5]) and in the data set with HeLa Kyoto [3] (cell cycle stage: mitosis) were 0.0845 and 0.043, respectively. For the same substance, in the data set with HeLa Kyoto [4], the “solubility in G1/S (log2)” value is -0.0594.
As to “MRFLAATFLLLALSTAAQAEPVQFKDCGSVDGVIKEVNVSPCPTQPCQLSKGQSYSVNVTFTSNIQSKSSKAVVHGILMGVPVPFPIPEPDGCKSGINCPIQKDKTYSYLNKLPVKSEYPSIKLVVEWQLQDDKNQSLFCWEIPVQIVSHL [NPC2]”, in the data set on HeLa Kyoto [1], the “solubility change mitosis (log2)” value amounted to 0.0342. The melting temperature in the data set on HeLa Kyoto [2] (cell cycle stage: G1/S) is 58.9 °C; in the data set on HeLa Kyoto [2] (cell cycle stage: mitosis) it was 53.4 °C. For the same substance, the thermal stability score in the data set on HeLa Kyoto [3] (setting [5]) was -3.22; in the data set with HeLa Kyoto [3] (cell cycle stage: mitosis) it was -2.19. Besides, in the data set with HeLa Kyoto [4], the “solubility in G1/S (log2)” value came out at 0.123.
As for “MDGKQGGMDGSKPAGPRDFPGIRLLSNPLMGDAVSDWSPMHEAAIHGHQLSLRNLISQGWAVNIITADHVSPLHEACLGGHLSCVKILLKHGAQVNGVTADWHTPLFNACVSGSWDCVNLLLQHGASVQPESDLASPIHEAARRGHVECVNSLIAYGGNIDHKISHLGTPLYLACENQQRACVKKLLESGADVNQGKGQDSPLHAVARTASEELACLLMDFGADTQAKNAEGKRPVELVPPESPLAQLFLEREGPPSLMQLCRLRIRKCFGIQQHHKITKLVLPEDLKQFLLHL [ASB9]”, in the data set with HeLa Kyoto [1], the “solubility change mitosis (log2)” value is -0.182. Moreover, the melting temperature turned out to be 55 °C in the data set with HeLa Kyoto [2] (cell cycle stage: G1/S) and 54.2 °C in the data set on HeLa Kyoto [2] (cell cycle stage: mitosis). Also, the results for the thermal stability score in the data set with HeLa Kyoto [3] (setting [5]) and in the data set with HeLa Kyoto [3] (cell cycle stage: mitosis) were -0.645 and -1.33, respectively. Moreover, the “solubility in G1/S (log2)” value in the data set with HeLa Kyoto [4] amounted to 0.762.
As for “MARGGRGRRLGLALGLLLALVLAPRVLRAKPTVRKERVVRPDSELGERPPEDNQSFQYDHEAFLGKEDSKTFDQLTPDESKERLGKIVDRIDNDGDGFVTTEELKTWIKRVQKRYIFDNVAKVWKDYDRDKDDKISWEEYKQATYGYYLGNPAEFHDSSDHHTFKKMLPRDERRFKAADLNGDLTATREEFTAFLHPEEFEHMKEIVVLETLEDIDKNGDGFVDQDEYIADMFSHEENGPEPDWVLSEREQFNEFRDLNKDGKLDKDEIRHWILPQDYDHAQAEARHLVYESDKNKDEKLTKEEILENWNMFVGSQATNYGEDLTKNHDEL [RCN1]”, in the data set with HeLa Kyoto [1], the “solubility change mitosis (log2)” value is 0.0254. Further, the figures for the melting temperature in the data set with HeLa Kyoto [2] (cell cycle stage: G1/S) and in the data set on HeLa Kyoto [2] (cell cycle stage: mitosis) were 55 °C and 56.4 °C, respectively. For the same substance, the thermal stability score stood at 1.52 in the data set with HeLa Kyoto [3] (setting [5]) and 1.33 in the data set with HeLa Kyoto [3] (cell cycle stage: mitosis). Further, in the data set on HeLa Kyoto [4], the “solubility in G1/S (log2)” value stood at 0.419.
On to “MSNTTVVPSTAGPGPSGGPGGGGGGGGGGGGTEVIQVTNVSPSASSEQMRTLFGFLGKIDELRLFPPDDSPLPVSSRVCFVKFHDPDSAVVAQHLTNTVFVDRALIVVPYAEGVIPDEAKALSLLAPANAVAGLLPGGGLLPTPNPLTQIGAVPLAALGAPTLDPALAALGLPGANLNSQSLAADQLLKLMSTVDPKLNHVAAGLVSPSLKSDTSSKEIEEAMKRVREAQSLISAAIEPDKKEEKRRHSRSRSRSRRRRTPSSSRHRRSRSRSRRRSHSKSRSRRRSKSPRRRRSHSRERGRRSRSTSKTRDKKKEDKEKKRSKTPPKSYSTARRSRSASRERRRRRSRSGTRSPKKPRSPKRKLSRSPSPRRHKKEKKKDKDKERSRDERERSTSKKKKSKDKEKDRERKSESDKDVKQVTRDYDEEEQGYDSEKEKKEEKKPIETGSPKTKECSVEKGTGDSLRESKVNGDDHHEEDMDMSD [SRSF11]”, for which the “solubility change mitosis (log2)” value in the data set with HeLa Kyoto [1] amounted to 0.175. In addition, the melting temperature with HeLa Kyoto [2] (cell cycle stage: G1/S) stood at 49.7 °C; in the data set on HeLa Kyoto [2] (cell cycle stage: mitosis), 50.4 °C. Also, the thermal stability score with HeLa Kyoto [3] (setting [5]) turned out to be 1.04; in the data set on HeLa Kyoto [3] (cell cycle stage: mitosis), 3.54. In addition, in the data set on HeLa Kyoto [4], the “solubility in G1/S (log2)” value was -0.739.
Turning to “MAILFAVVARGTTILAKHAWCGGNFLEVTEQILAKIPSENNKLTYSHGNYLFHYICQDRIVYLCITDDDFERSRAFNFLNEIKKRFQTTYGSRAQTALPYAMNSEFSSVLAAQLKHHSENKGLDKVMETQAQVDELKGIMVRNIDLVAQRGERLELLIDKTENLVDSSVTFKTTSRNLARAMCMKNLKLTIIIIIVSIVFIYIIVSPLCGGFTWPSCVKK [VAMP7]”, the “solubility change mitosis (log2)” value with HeLa Kyoto [1] is -0.283. The melting temperature in the data set on HeLa Kyoto [2] (cell cycle stage: G1/S) was 54.4 °C; with HeLa Kyoto [2] (cell cycle stage: mitosis), 53.1 °C. Also, the thermal stability score came out at 1.62 in the data set with HeLa Kyoto [3] (setting [5]) and 1.41 in the data set on HeLa Kyoto [3] (cell cycle stage: mitosis). Also, in the data set with HeLa Kyoto [4], the “solubility in G1/S (log2)” value is -0.0498.
In the case of GAPDH, in the data set on HeLa Kyoto [1], the “solubility change mitosis (log2)” value was -0.0817. The melting temperature with HeLa Kyoto [2] (cell cycle stage: G1/S) came to 59.5 °C; in the data set with HeLa Kyoto [2] (cell cycle stage: mitosis), 60.3 °C. Further, the thermal stability score was -2.02 in the data set with HeLa Kyoto [3] (setting [5]) and -3.87 with HeLa Kyoto [3] (cell cycle stage: mitosis). Besides, in the data set with HeLa Kyoto [4], the “solubility in G1/S (log2)” value stood at 0.191.

(Values after the supplement of paper PMC5998384.)
